Laboratory results: patent publication US8956838B2, “Carboxyl esterase polypeptides” (B.R.A.I.N., priority 2006, dated 2015)

What was measured:
Type in all cases: biochemical
[1] = Enantioselectivity, GC analysis of hydrolysis of acetic acid esters
Protocol: To assay the activity of the enzymes on a range of acetic acid esters gas chromatography was used. The samples were analyzed for the production of chiral alcohols by the gas chromatograph GC-17A (Shimadzu, Duisburg, Germany) equipped with FID detector and CP-Chirasil-DEX CB (Chrompack (Middelburg, Netherlands), 25 m×0.25 mm ID) at a helium flow of 1.3 ml/min. The temperature programme included: 5 min at 60° C., followed by an increase of 5° C. per min until 190° C. was reached. For the GC analysis, activity-tests were run in 1 M Tris buffered solutions and using 10 mM substrates dissolved in DMSO as 0.1 M stock solutions. 2 μg of the enzyme were added and tests incubated over night before the corresponding alcohols could be extracted by treatment with acetic acid ethyl ester and analyzed by GC.

[2] = Titration assay with triglycerides; conditions: 10 mM, 37° C., pH 7.0
Protocol: (§1) Enzyme activities on the substrates triacetin, tripropionin, tributyrin, tricaprylene, trilaurin and vinyl-substrates (vinyl-acetate, ˜propionate, ˜butyrate, ˜caproate, ˜caprylate and ˜laurate) were determined using a standard titration assay with minor modifications. Tests were performed with a Methrom 718 STAT potentiometric titrator (Herisau, Switzerland) and by using 10 mM NaOH for titration. The substrates at 10 mM concentration were emulsified in 20 ml reaction buffer containing 2 mM Tris/HCl pH 7.0. After addition of 7.5 μg of the purified enzyme the NaOH consumption was recorded at a reaction temperature of 37° C. One unit was defined as the amount of enzyme that released […] of fatty acid per min.

[3] = Enzyme activity with pNP-acylesters of different chain length; conditions: substrate pNP-caproate (C6); 4 mM, 45° C., pH 7.2
Protocol: Enzyme activity tests were performed by incubating the enzyme with 4 mM substrate at 45° C. in 100 mM Tris-HCl buffer at pH 7.2, unless otherwise indicated. The reaction was measured at 410 nm. One unit is defined as the amount of enzyme catalyzing the appearance of 1 μmol of free p-nitrophenol/min. Enzyme activity against pNP-acylesters (butyrate, valerate, caproate, octanoate, decanoate and palmitate) was tested under the above conditions. […] The enzyme according to SEQ ID NO: 6 converted pNP-caproate with a specific activity of 80.0 U/mg.

[4] = Titration assay with vinyl acid esters; conditions: 10 mM, 37° C., pH 7.0
Protocol: as §1

[5] = substrate cis-3,5-diacetoxy-1-cyclopenten
[6] = substrate cis-3,5-diacetoxy-1-cyclopenten, conversion for the preferred enantiomer
[7] = substrate Acetic acid ester of tetrahydronaphthylamin
[8] = substrate acetic acid ester of (+/−)-1-octin-3-ol, 10 mM, over night
[9] = substrate acetic acid ester of phenylethylamin
[10] = substrate isopropylidenglycerolacetate (rac.), values marked ^1: substrate conversion after 12 h

B1: EstCL2: recombinant enzyme having carboxyl esterase activity, amino acid sequence SEQ ID NO: 8, family V of bacterial lipolytic enzymes (protein)
chain: MKRKTIFSRLSFAALGLFAVATIALDAKAATTCPAGAICRYEEAPGSYSGNGPYTVRSYTLSRLQTPGGATVYYPSNARPPFSGVVFTPPYTGIQSMFAAWGPFFASHGIVMVTMDTNTTLDTVDQRASQQKQVLDALKRENTRSASALYGKLNTARLGAVGWSMGGGATWINSAEYAGLKSAMSLAGHNLTTVDIDSRGGNTRIPTLILNGALDLTYLGGLGQSDGVYNNIRSGVPKVFYEVSSAGHFAWGSPTSANRAVAGIALAFHKTFLDGDTRWVSYIKRPSSDVSKWATASLPQ
modifications: metagenomic sequence
Question: What does the source list for B1?
Answer: conversion % of 2.e [1, 5]: 0%; conversion % of 1.e [1, 6]: 100%; ee % ([1]; substrate cis-3,5-diacetoxy-1-cyclopenten, listed as EstCl2): 76.3%; ee % ([1]; substrate cis-3,5-diacetoxy-1-cyclopenten, listed as SEQ ID NO: 8): 76%

B2: EstCL1: recombinant enzyme having carboxyl esterase activity, amino acid sequence SEQ ID NO: 6, family IV of bacterial lipolytic enzymes (protein)
chain: MTDPYVRPDVAMFLAFLNNAPGPKLHELSAPEARMVQNAMRDMADAPVGELAVMRDLEIPGPAGTIMARLYDKQPGRGSGPAMVFFHGGGFVIGNIHTYEPFCAEVARLLDLPVISVEYRLGPESPFPAAFEDCEAAARWVASKPEALGFDVSGLILSGDSAGGNLTISTSMALRDVAAGVPVIAQMPIYPVVTLDPDWPSMRDFADGYLLTAELIQWFGDGHGASGEDYRTHPLDFDQSGMPPTVITTASLDPLRDQGMAYFEKLKAAGVRAEHISAEGNIHGHINVRKGIPSSQQDVEGYVTALTAMLAGVMAEA
modifications: metagenomic sequence
Question: For B2, which specific activity ([2]; substrate triacetin (C2)) is on record?
Answer: Its specific activity is 120 U/mg.

Question: And the specific activity ([2]; substrate tributyrin (C4))?
Answer: Its specific activity is 330 U/mg.

Question: And the specific activity ([2]; substrate tricaprylin (C8))?
Answer: The specific activity was 0 U/mg.

Question: What about the specific activity ([2]; substrate trilaurin (C12)) of the same molecule?
Answer: Its specific activity is 0 U/mg.

Question: And the specific activity ([2]; substrate tripropionin (C3))?
Answer: Its specific activity is 200 U/mg.

Question: And the specific activity [3]?
Answer: The specific activity was 80.0 U/mg.

Question: What about the specific activity ([4]; substrate vinyl acetate (C2)) of the same molecule?
Answer: The specific activity was 0 U/mg.

Question: And the specific activity ([4]; substrate vinyl butyrate (C4))?
Answer: Its specific activity is 550 U/mg.

Question: What about the specific activity ([4]; substrate vinyl caprylate (C8)) of the same molecule?
Answer: The specific activity was 80 U/mg.

Question: And the specific activity ([4]; substrate vinyl laurinate (C12))?
Answer: Its specific activity is 0 U/mg.

Question: What about the specific activity ([4]; substrate vinyl propionate (C3)) of the same molecule?
Answer: The specific activity was 173 U/mg.

Question: And the “conversion % of 1.e” value [1, 7]?
Answer: Its value is 0%.

Question: And the “conversion % of 2.e” value [1, 7]?
Answer: The value was 0%.

Question: What about the “conversion % of 1.e” value [1, 8] of the same molecule?
Answer: The value was 0%.

Question: And the “conversion % of 2.e” value [1, 8]?
Answer: The value was 0%.

Question: And the “conversion % of 1.e” value [1, 9]?
Answer: Its value is 0%.

Question: What about the “conversion % of 2.e” value [1, 9] of the same molecule?
Answer: Its value is 0%.

Question: What about the “conversion % of 2.e” value [1, 5] of the same molecule?
Answer: Its value is 0%.

Question: What about the ee % [1, 5] of the same molecule?
Answer: Its ee % is 100%.

Question: What about the “conversion % of 1.e” value [1, 6] of the same molecule?
Answer: Its value is 100%.

Question: And the ee % ([1]; substrate isopropylidenglycerolacetate (rac.))?
Answer: Its ee % is 100%.

Question: And the “conversion % of 1.e” value [1, 10]?
Answer: The value was 0%.

Question: What about the “conversion % of 2.e” value [1, 10] of the same molecule?
Answer: Its value is 35%.

Question: What about the “conversion % of 1.e” value ([1]; substrate menthylacetate, 1. enantiomer (+)) of the same molecule?
Answer: Its value is 0%.

Question: And the “conversion % of 2.e” value ([1]; substrate menthylacetate, 2.e. (−))?
Answer: Its value is 0%.
